{
  "source": "paper PMC13411919",
  "molecular_target": "trimeric BG505.SOSIP.664 T332N-avi-biotinylated protein (HIV-1 (BG505, clade A))",
  "assay": "native gel or EMSA; BN-PAGE (NuPAGE 4-12% BisTris) of the SEC trimer peak, before and after biotinylation",
  "data": [
    {"substance": "trimeric BG505.SOSIP.664 T332N-avi-biotinylated protein (domain or fragment)", "values": [
      {"measurement": "stoichiometry N", "value": 3}
    ]}
  ]
}
